The values that follow come from paper PMC3826083.

As usually defined, the Kd is the concentration at which binding is half-saturated.

The target of one test is mCherry-R125I. Put plainly: fluorescence polarisation. Background: Fluorescence polarisation rises when a labelled molecule tumbles more slowly, as on binding a larger partner.
For a further test, the target named is mCherry-R125I/T127V. The test is described as follows: fluorescence polarisation.

For mCherry-R125I, the Kd with mCherry-R125I is 35 µM.
Substance mCherry-R125I/T127V came in with a Kd in the test with mCherry-R125I/T127V of 0.091 µM.
